Data: patent US20030147810A1

Key:
[1] = target: secreted alkaline phosphatase fused to the Swedish mutation of the BACE cleavage site in APP (…) and the KDEL sequence (UniProt P05187); assay: cell-based or functional assay
[2] = target: secreted alkaline phosphatase with the wild type BACE cleavage site of amyloid precursor and the KDEL sequence (UniProt P05187); assay: cell-based or functional assay

alkaline phosphatase activity in the conditioned media of transfected neuro-2 cells (chemiluminescence, photons) [1]: 3.46e+06 photons
efficiency of secretion: alkaline phosphatase activity in the conditioned media of transfected neuro-2 cells, percent of control (no KDEL) [1]: 66 % of control
alkaline phosphatase activity in the conditioned media of transfected neuro-2 cells (chemiluminescence, photons) [2]: 83700 photons
alkaline phosphatase activity in the conditioned media of transfected neuro-2 cells, percent of control (no KDEL) [2]: 1.6 % of control
Substance: BACE (beta-site APP-cleaving enzyme)
